Reference: article PMC4585563, “Small angle X-ray scattering studies of CTNNBL1 dimerization and CTNNBL1/CDC5L complex” (Scientific Reports, 2015)

B1: CTNNBL1^Q199R (domain or fragment, human, UniProt Q8WYA6 77-563, looked up)
chain: LDESSVKKMILTFEKRSYKNQELRIKFPDNPEKFMESELDLNDIIQEMHVVATMPDLYHLLVELNAVQSLLGLLGHDNTDVSIAVVDLLQELTDIDTLHESEEGAEVLIDALVDGQVVALLVRNLERLDESVKEEADGVHNTLAIVENMAEFRPEMCTEGAQQGLLQWLLKRLKAKMPFDANKLYCSEVLAILLQDNDENRELLGELDGIDVLLQQLSVFKRHNPSTAEEQEMMENLFDSLCSCLMLSSNRERFLKGEGLQLMNLMLREKKISRSSALKVLDHAMIGPEGTDNCHKFVDILGLRTIFPLFMKSPRKIKKVGTTEKEHEEHVCSILASLLRNLRGQQRTRLLNKFTENDSEKVDRLMELHFKYLGAMQVADKKIEGEKHDMVRRGEIIDNDTEEEFYLRRLDAGLFVLQHICYIMAEICNANVPQIRQRVHQILNMRGSSIKIVRHIIKEYAENIGDGRSPEFRENEQKRILGLLENF
notes: human CTNNBL1, residues 77-563, point mutant made by site-directed mutagenesis; source: E. coli, purified as wild-type CTNNBL1; not shown: 6xHis, N-terminal, cleaved; VHb (bacterial hemoglobin), N-terminal, cleaved
B2: CTNNBL1^I101R (domain or fragment, human, UniProt Q8WYA6 77-563, looked up)
chain: LDESSVKKMILTFEKRSYKNQELRRKFPDNPEKFMESELDLNDIIQEMHVVATMPDLYHLLVELNAVQSLLGLLGHDNTDVSIAVVDLLQELTDIDTLHESEEGAEVLIDALVDGQVVALLVQNLERLDESVKEEADGVHNTLAIVENMAEFRPEMCTEGAQQGLLQWLLKRLKAKMPFDANKLYCSEVLAILLQDNDENRELLGELDGIDVLLQQLSVFKRHNPSTAEEQEMMENLFDSLCSCLMLSSNRERFLKGEGLQLMNLMLREKKISRSSALKVLDHAMIGPEGTDNCHKFVDILGLRTIFPLFMKSPRKIKKVGTTEKEHEEHVCSILASLLRNLRGQQRTRLLNKFTENDSEKVDRLMELHFKYLGAMQVADKKIEGEKHDMVRRGEIIDNDTEEEFYLRRLDAGLFVLQHICYIMAEICNANVPQIRQRVHQILNMRGSSIKIVRHIIKEYAENIGDGRSPEFRENEQKRILGLLENF
notes: as for B1
B3: CTNNBL1^Q192R (domain or fragment, human, UniProt Q8WYA6 77-563, looked up)
chain: LDESSVKKMILTFEKRSYKNQELRIKFPDNPEKFMESELDLNDIIQEMHVVATMPDLYHLLVELNAVQSLLGLLGHDNTDVSIAVVDLLQELTDIDTLHESEEGAEVLIDALVDGRVVALLVQNLERLDESVKEEADGVHNTLAIVENMAEFRPEMCTEGAQQGLLQWLLKRLKAKMPFDANKLYCSEVLAILLQDNDENRELLGELDGIDVLLQQLSVFKRHNPSTAEEQEMMENLFDSLCSCLMLSSNRERFLKGEGLQLMNLMLREKKISRSSALKVLDHAMIGPEGTDNCHKFVDILGLRTIFPLFMKSPRKIKKVGTTEKEHEEHVCSILASLLRNLRGQQRTRLLNKFTENDSEKVDRLMELHFKYLGAMQVADKKIEGEKHDMVRRGEIIDNDTEEEFYLRRLDAGLFVLQHICYIMAEICNANVPQIRQRVHQILNMRGSSIKIVRHIIKEYAENIGDGRSPEFRENEQKRILGLLENF
notes: as for B1
B4: CTNNBL1^E282A (domain or fragment, human, UniProt Q8WYA6 77-563, looked up)
chain: LDESSVKKMILTFEKRSYKNQELRIKFPDNPEKFMESELDLNDIIQEMHVVATMPDLYHLLVELNAVQSLLGLLGHDNTDVSIAVVDLLQELTDIDTLHESEEGAEVLIDALVDGQVVALLVQNLERLDESVKEEADGVHNTLAIVENMAEFRPEMCTEGAQQGLLQWLLKRLKAKMPFDANKLYCSEVLAILLQDNDENRELLGALDGIDVLLQQLSVFKRHNPSTAEEQEMMENLFDSLCSCLMLSSNRERFLKGEGLQLMNLMLREKKISRSSALKVLDHAMIGPEGTDNCHKFVDILGLRTIFPLFMKSPRKIKKVGTTEKEHEEHVCSILASLLRNLRGQQRTRLLNKFTENDSEKVDRLMELHFKYLGAMQVADKKIEGEKHDMVRRGEIIDNDTEEEFYLRRLDAGLFVLQHICYIMAEICNANVPQIRQRVHQILNMRGSSIKIVRHIIKEYAENIGDGRSPEFRENEQKRILGLLENF
notes: as for B1
B5: CTNNBL1^L87R/I101R (domain or fragment, human, UniProt Q8WYA6 77-563, looked up)
chain: LDESSVKKMIRTFEKRSYKNQELRRKFPDNPEKFMESELDLNDIIQEMHVVATMPDLYHLLVELNAVQSLLGLLGHDNTDVSIAVVDLLQELTDIDTLHESEEGAEVLIDALVDGQVVALLVQNLERLDESVKEEADGVHNTLAIVENMAEFRPEMCTEGAQQGLLQWLLKRLKAKMPFDANKLYCSEVLAILLQDNDENRELLGELDGIDVLLQQLSVFKRHNPSTAEEQEMMENLFDSLCSCLMLSSNRERFLKGEGLQLMNLMLREKKISRSSALKVLDHAMIGPEGTDNCHKFVDILGLRTIFPLFMKSPRKIKKVGTTEKEHEEHVCSILASLLRNLRGQQRTRLLNKFTENDSEKVDRLMELHFKYLGAMQVADKKIEGEKHDMVRRGEIIDNDTEEEFYLRRLDAGLFVLQHICYIMAEICNANVPQIRQRVHQILNMRGSSIKIVRHIIKEYAENIGDGRSPEFRENEQKRILGLLENF
notes: human CTNNBL1, residues 77-563, double-point mutant (capping region); also called capping region mutant; source: E. coli, purified as wild-type CTNNBL1; not shown: 6xHis, N-terminal, cleaved; VHb (bacterial hemoglobin), N-terminal, cleaved
B6: CTNNBL1^G148R/Q192R/Q199R (domain or fragment, human, UniProt Q8WYA6 77-563, looked up)
chain: LDESSVKKMILTFEKRSYKNQELRIKFPDNPEKFMESELDLNDIIQEMHVVATMPDLYHLLVELNAVQSLLRLLGHDNTDVSIAVVDLLQELTDIDTLHESEEGAEVLIDALVDGRVVALLVRNLERLDESVKEEADGVHNTLAIVENMAEFRPEMCTEGAQQGLLQWLLKRLKAKMPFDANKLYCSEVLAILLQDNDENRELLGELDGIDVLLQQLSVFKRHNPSTAEEQEMMENLFDSLCSCLMLSSNRERFLKGEGLQLMNLMLREKKISRSSALKVLDHAMIGPEGTDNCHKFVDILGLRTIFPLFMKSPRKIKKVGTTEKEHEEHVCSILASLLRNLRGQQRTRLLNKFTENDSEKVDRLMELHFKYLGAMQVADKKIEGEKHDMVRRGEIIDNDTEEEFYLRRLDAGLFVLQHICYIMAEICNANVPQIRQRVHQILNMRGSSIKIVRHIIKEYAENIGDGRSPEFRENEQKRILGLLENF
notes: human CTNNBL1, residues 77-563, triple-point mutant (ARM I and ARM II); also called ARM I and ARM II mutant; source: E. coli, purified as wild-type CTNNBL1; not shown: 6xHis, N-terminal, cleaved; VHb (bacterial hemoglobin), N-terminal, cleaved

Target: the molecule itself
Assay: SEC; Superdex 200 10/300, 500 μl of 2 mg/ml protein, 0.5 ml/min, 40 mM Tris-HCl pH 8.0, 150 mM NaCl; molecular weight from calibration standards

Q: With B1 as the protein, how does the “stoichiometry N” value read?
A: 2

Q: Which “stoichiometry N” value does the source give for B2 here?
A: 2

Q: B3 was tested. Which “stoichiometry N” value did it give?
A: 2

Q: Which “stoichiometry N” value does the source give for B4 here?
A: 2

Q: B5 was tested. Which “stoichiometry N” value did it give?
A: 2

Q: For B6, which “stoichiometry N” value is on record?
A: 2
